Test results reported in patent publication US20260250410A1, “ANTIBODY AND USE THEREOF” (SICHUAN HUIYU PHARMACEUTICAL CO., LTD., priority 2022, published 2026).

How the values were obtained:
Format in all cases: cell-based, human
[1] = test system: PC3 cells; experiment: Flow cytometry binding of murine monoclonal antibody to tumor cells; conditions: cells with high expression of CDCP1
Procedure: (§1) Flow cytometry was used to detect the binding capacity of antibody to tumor cells. […] 2.0×10^4 tumor cells were added per well, respectively, and 50 μL (PBS+2% FBS) were added, and after blocking at room temperature with an Fe blocker (Human TruStain FcX™, Biolegend, 422302) for 10 mins, an anti-CDCP1 murine monoclonal antibody at a final concentration of 200 nM was added. The obtained mixture was subjected to a 3-fold serial dilution across 8 concentration points, and incubated at 4° C. for 30 mins, and then incubated with a secondary antibody (PE anti-human IgG Fc Antibody, Biolegend, 410708), detection was performed using a flow cytometer.

[2] = test system: MDA-MB-231 cells; experiment: as above; conditions: cells with high expression of CDCP1
Procedure: as §1

[3] = test system: MDA-MB-231 cells; experiment: Endocytosis capacity of single B cell antibodies; conditions: MDA-MB-231, 2 h at 37° C., antibody 1.5 μg/mL
Procedure: The endocytosis capacity of the antibody was detected for 0.5 to 2 hours. MDA-MB-231 cells were subjected to digestion with 5 mM EDTA, and plated at 2×10^4 cells/well after cell counting. After adding an Fc blocker (Human TruStain FcX™, Biolegend, 422302) and blocking at room temperature for 10 mins, a test antibody (1.5 μg/mL) was added, and the mixture was incubated at 4° C. for 30 mins, centrifuged, and washed twice with PBS+2% FBS, then the cells were divided into four equal portions (labeled as 0 h, 0.5 h, 1 h, 2 h), cells labeled as 0.5 h, 1 h, 2 h time points were added to 200 μL of cell culture medium, and cultured at 37° C. for 0.5 h, 1 h, 2 h, respectively. Cells at 0 h point were centrifuged, a secondary antibody (PE anti-human IgG Fc Antibody, Biolegend, 410708) was added, and the mixture was incubated at 4° C. for 30 mins, centrifuged, and washed twice with PBS+2% FBS, and detection was performed using a flow cytometer. After incubation of cells labeled as 0.5 h, 1 h, and 2 h points at 37° C. was completed, a secondary antibody was added (in the same steps as those at 0 h point), Geo-MFI of the signal under the same voltage was collected as detection signal at 0 h, and antibody internalization rate was calculated according to the following equation: Internalization (%)=(Geo-MFI (0 h)-Geo-MFI (2 h))/Geo-MFI (0 h)×100%.

Molecule | EC50 [1] [nM] | EC50 [2] [nM] | Internalization MDA-MB-231 (%) [3] [%]
SB8: anti-CDCP1 antibody by single B cell technique; VH SEQ ID NO: 278, VL SEQ ID NO: 328 (antibody, V domains shown, SB8 heavy chain variable region; SB8 light chain variable region) VH: QVTLKESGPGILKPSQTLSLTCSFSGFSLSTSGVGVGWIRQPSGKGLEWLAHIWWDDEKYYNPSLKSHFTISKDTSRNQVFLKITSVDTADTATYYCVKEGDGMDYWGQGTSVTVSS VL: QAVVTQESALTTSPGETVTLTCRSSTGAVATSNYANWVQEKPDHLFTGLIGGTNNRVPGVPARFSGSLIGDKAALTITGAQTEDEAIYFCALWYSNHWVFGGGTKLTVL | 0.91 | 0.93 | 
SB1: anti-CDCP1 antibody by single B cell technique; VH SEQ ID NO: 271, VL SEQ ID NO: 321 (antibody, V domains shown, SB1 heavy chain variable region; SB1 light chain variable region) VH: QVQLQQSGPDLVRPGESVKISCKGSGYTFTDHAIHWVRQSHAKSLEWIGVISFSYDNTKYNQNFKGKATMTVDKSSNTAYMELARLTSEDSAIYYCARDCYGSNRGYFDYWGQGTTLTVSS VL: DIRMTQSPSSMYASLGERVTITCKASQDINRFLSWFLQRPGKAPKTLIYRANNLVEGVPSRFSGSGSGQDYSLIISNLEYEDMGIYYCLQYDEFPRTFGGGTKLEIK |  |  | 34.65
